Test system: Cladosporium cladosporioides
Assay type: in vivo
Details: for Observed mold growth spots (out of 18 inoculated) / Percent of mold growth relative to surfactant only control: 6 days

B1: endochitinase (SEQ ID NO: 778): endochitinase as printed in b921; probably a misprint for SEQ ID NO: 777 (protein, listed as Serratia marcescens)
chain: MSTRKAVIGYYFIPTNQINNYTETDTSVVPFPVSNITPAKAKQLTHINFSFLDINSNLECAWDPATNDAKARDVVNRLTALKAHNPSLRIMFSIGGWYYSNDLGVSHANYVNAVKTPASRAKFAQSCVRIMKDYGFDGVDIDWEYPQAAEVDGFIAALQEIRTLLNQQTVADGRQALPYQLTIAGAGGAFFLSRYYSKLAQIVAPLDYINLMTYDLAGPWEKVTNHQAALFGDAAGPTFYNALREANLGWSWEELTRAFPSPFSLTVDAAVQQHLMMEGVPSAKIVMGVPFYGRAFKGVSGGNGGQYSSHSTPGEDPYPSTDYWLVGCEECVRDKDPRIASYRQLEQMLQGNYGYQRLWNDKTKTPYLYHAQNGLFVTYDDAESFKYKAKYIKQQQLGGVMFWHLGQDNRNGDLLAALDRYFNAADYDDSQLDMGTGLRYTGVGPGNLPIMTAPAYVPGTTYAQGALVSYQGYVWQTKWGYITSAPGSDSAWLKVGRVA
mold growth relative to the surfactant only control (in vivo): 83%

B2: SEQ ID NO: 772: β-1,3 endoglucanase, Cellulosimicrobium cellulans DK1 (protein)
chain: APGDLLWSDEFDGAAGSAPNPAVWNHETGAHGWGNAELQNYTASRANSALDGQGNLVITARREGDGSYTSARMTTQGKYQPQYGRIEARIQIPRGQGIWPAFWMLGGSFPGTPWPSSGEIDIMENVGFEPHRVHGTVHGPGYSGGSGITGMYQHPQGWSFADTFHTFAVDWKPGEITWFVDGQQFHRVTRASVGANAWVFDQPFFLILNVAVGGQWPGYPDGTTQLPQQMKVDYVRVYDNGSGSSNPGNPGTGLPTGTGAVRAANGMCIDVPWADPTDGNPVQIVTCSGNAAQTWTRGSDGTVRALGKCLDVRDGSTTRGAAVQVWTCNGTGAQKWAYDAGSKALRNPQSGLCLDATGGAPLHDGQRLQTWTCNGTTAQQWTL
modifications: Cellulosimicrobium cellulans strain DK-1
notes: β-1,3 endoglucanase, Cellulosimicrobium cellulans DK1
mold growth compared to the surfactant control treatment (in vivo): 85%

B3: SEQ ID NO: 732: β-1,3 endoglucanase, Paenibacillus species (protein)
chain: AETAGTTITSMSYFSTADGPIITKSGVGQASYGFVMPIFNGGSATWNDVAQDLGVKVKVNGSWVDIDSVSSFVYNQNWGHWNDGGFTGYWFTLSATTEIQLYSKANEVTLEYSLVFQNINKTTITAMTPTQGPQITAGFTGGAGFTYPIFNHDPAITYAAVADDLKVYVKPVNSSQWIDIDNNAASGWIYDQNFGQFTDGGGGYWFNVTESINVKLESKTSSTNIVYTISFNEPVRNSYVLTPYEGTTFTADASGAIGIPLPKIDGGAPIGTELGNFVYQININGQWVDLDNSSQSGFVYSANGYNNMSAANQWGYWADHIYGLWFQPIQVDMQIRIGYPLNGQAGGSVGSNFVNYTLIGNPDAPRPDVNDQEDIPIGTPNDSAIEGMNLIWQDEFNGTALDQSKWNYETGYYLNDDPNTWGWGNSELQHYTDRAQNVFVQDGKLNIKALNEPKSFPQDPSRYAQYSSGKINTKDHFSLKYGRVDFRAKLPTGNGIWPALWMLPQDNVYGTWASSGEIDVMEAKGRLPGSTSGAVHFGGQWPTNRYLSGEYHFPEGQTFANDYHVYSVVWEEDNIKWYVDGKFFFKVTRDQWYSAAAPNNPNAPFDQPFYLIMNLAIGGTFDGGRTPDPSDIPATMQVDYVRVYKEGEGGGQNPGNVPVTGVTVNPTTAQVEVGQSVQLNASVAPSNATNKQVTWSVSGSSIASVSPNGLVTGLAQGTTTVTATTADGNKAASATITVAPAPSTVIVIGDEVKGLKKIGDDLLFYVNGATFADLHYKVNNGGQLNVAMAPTGNGNYTYPVHNLKHGDTVEYFFTYNPGQGALDTPWQTYVHGVTQGTPE
modifications: Paenibacillus spp.
notes: β-1,3 endoglucanase, Paenibacillus species
mold growth relative to the surfactant only control (in vivo): 61%

B4: β-1,3-endoglucanase (bglH) Paenibacillus immobilized enzyme (SEQ ID NO: 732) (protein)
chain: AETAGTTITSMSYFSTADGPIITKSGVGQASYGFVMPIFNGGSATWNDVAQDLGVKVKVNGSWVDIDSVSSFVYNQNWGHWNDGGFTGYWFTLSATTEIQLYSKANEVTLEYSLVFQNINKTTITAMTPTQGPQITAGFTGGAGFTYPIFNHDPAITYAAVADDLKVYVKPVNSSQWIDIDNNAASGWIYDQNFGQFTDGGGGYWFNVTESINVKLESKTSSTNIVYTISFNEPVRNSYVLTPYEGTTFTADASGAIGIPLPKIDGGAPIGTELGNFVYQININGQWVDLDNSSQSGFVYSANGYNNMSAANQWGYWADHIYGLWFQPIQVDMQIRIGYPLNGQAGGSVGSNFVNYTLIGNPDAPRPDVNDQEDIPIGTPNDSAIEGMNLIWQDEFNGTALDQSKWNYETGYYLNDDPNTWGWGNSELQHYTDRAQNVFVQDGKLNIKALNEPKSFPQDPSRYAQYSSGKINTKDHFSLKYGRVDFRAKLPTGNGIWPALWMLPQDNVYGTWASSGEIDVMEAKGRLPGSTSGAVHFGGQWPTNRYLSGEYHFPEGQTFANDYHVYSVVWEEDNIKWYVDGKFFFKVTRDQWYSAAAPNNPNAPFDQPFYLIMNLAIGGTFDGGRTPDPSDIPATMQVDYVRVYKEGEGGGQNPGNVPVTGVTVNPTTAQVEVGQSVQLNASVAPSNATNKQVTWSVSGSSIASVSPNGLVTGLAQGTTTVTATTADGNKAASATITVAPAPSTVIVIGDEVKGLKKIGDDLLFYVNGATFADLHYKVNNGGQLNVAMAPTGNGNYTYPVHNLKHGDTVEYFFTYNPGQGALDTPWQTYVHGVTQGTPE
modifications: immobilized; Paenibacillus spp.
Observed mold growth spots (out of 18 inoculated): 11 spots (out of 18 inoculated) | Percent of mold growth relative to surfactant only control: 61%

B5: Endochitinase (ChiC) Bacillus thuringiensis immobilized enzyme (SEQ ID NO: 777) (protein, listed as Bacillus thuringiensis)
chain: DSPKQSQKIVGYFPSWGVYGRNYQVADIDASKLTHLNYAFADICWKGKHGNPSTHPDNPNKQTWNCKESGVPLQNKEVPNGTLVLGEPWADVTKSYPGSGTTWEDCDKYARCGNFGELKRLKAKYPHLKTIISVGGWTWSNRFSDMAADEKTRKVFAESTVAFLRAYGFDGVDLDWEYPGVETIPGGSYRPEDKQNFTLLLQDVRNALNKAGAEDGKQYLLTIASGASQRYADHTELKKISQILDWINIMTYDFHGGWEATSNHNAALYKDPNDPAANTNFYVDGAIDVYTNEGVPVDKLVLGVPFYGRGWKSCGKENNGQYQPCKPGSDGKLASKGTWDDYSTGDTGVYDYGDLTANYVNKNGFVRYWNDTAKVPYLYNATTGTFISYDDNESMKYKTDYIKTKGLSGAMFWELSGDCRTSPKYSCSGPKLLDTLVKELLGGPINQKDTEPPTNVKNIIVTNKTSSSVQLSWTASTDNVGVTEYEITAGEEKWSATTNSITIKNLKPNTEYTFSVIAKDASGNKSHPTALTVKTDEANTTPPDGNGTATFSVTSNWGSGYNFSIIIKNNGTIPIKNWKLEFDYSGNLTQVWDSKISSKTNNHYVITNAGWNGEIPPGGSITIGGAGTGNPAELLNAVISEN
modifications: immobilized
Observed mold growth spots (out of 18 inoculated): 15 spots (out of 18 inoculated) | Percent of mold growth relative to surfactant only control: 83%
